Reference: article PMC1310897

Legend:
Experiment in all cases: fluorescence polarization
RecQ WT = RecQ WT (Escherichia coli, UniProt P15043 1-609)
RecQ W154L = RecQ W154L (Escherichia coli, UniProt P15043 1-609, W154L)
RecQ F158L = RecQ F158L (Escherichia coli, UniProt P15043 1-609, F158L)
RecQ R159L = RecQ R159L (Escherichia coli, UniProt P15043 1-609, R159L)

Measured: binding result

B1: oligo 1 ssDNA (30 nt) (ssDNA)
DNA: GCGTGGGTAATTGTGCTTCAATGGACTGAC
binds: all assays above
